Source: IntAct's records for PubMed 12084833

B1: Regulatory protein NPR1 (Arabidopsis thaliana (Mouse-ear cress)), P93002 (parent)
chain: MDTTIDGFADSYEISSTSFVATDNTDSSIVYLAAEQVLTGPDVSALQLLSNSFESVFDSPDDFYSDAKLVLSDGREVSFHRCVLSARSSFFKSALAAAKKEKDSNNTAAVKLELKEIAKDYEVGFDSVVTVLAYVYSSRVRPPPKGVSECADENCCHVACRPAVDFMLEVLYLAFIFKIPELITLYQRHLLDVVDKVVIEDTLVILKLANICGKACMKLLDRCKEIIVKSNVDMVSLEKSLPEELVKEIIDRRKELGLEVPKVKKHVSNVHKALDSDDIELVKLLLKEDHTNLDDACALHFAVAYCNVKTATDLLKLDLADVNHRNPRGYTVLHVAAMRKEPQLILSLLEKGASASEATLEGRTALMIAKQATMAVECNNIPEQCKHSLKGRLCVEILEQEDKREQIPRDVPPSFAVAADELKMTLLDLENRVALAQRLFPTEAQAAMEIAEMKGTCEFIVTSLEPDRLTGTKRTSPGVKIAPFRILEEHQSRLKALSKTVELGKRFFPRCSAVLDQIMNCEDLTQLACGEDDTAEKRLQKKQRYMEIQETLKKAFSEDNLELGNSSLTDSTSSTSKSTGGKRSNRKLSHRRR
partner: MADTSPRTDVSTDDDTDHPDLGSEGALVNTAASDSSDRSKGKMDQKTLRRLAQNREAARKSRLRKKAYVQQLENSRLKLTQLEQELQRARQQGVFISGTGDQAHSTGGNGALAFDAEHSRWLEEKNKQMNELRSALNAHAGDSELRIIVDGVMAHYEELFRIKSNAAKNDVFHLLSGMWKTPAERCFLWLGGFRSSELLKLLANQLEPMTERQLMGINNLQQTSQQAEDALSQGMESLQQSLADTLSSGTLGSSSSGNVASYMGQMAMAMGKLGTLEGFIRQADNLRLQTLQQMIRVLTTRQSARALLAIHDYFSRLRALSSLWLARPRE

Variants of: B1
Conditions: with tga2_arath TGA2, P43273

| effect of a mutation on the interaction | Variant |
| --- | --- |
| disrupting interaction | MDTTIDGFADSYEISSTSFVATDNTDSSIVYLAAEQVLTGPDVSALQLLSNSFESVFDSPDDFYSDAKLVLSDGREVSFHRCVLSARSSFFKSALAAAKKEKDSNNTAAVKLELKEIAKDYEVGFDSVVTVLAYVYSSRVRPPPKGVSEYADENCCHVACRPAVDFMLEVLYLAFIFKIPELITLYQRHLLDVVDKVVIEDTLVILKLANICGKACMKLLDRCKEIIVKSNVDMVSLEKSLPEELVKEIIDRRKELGLEVPKVKKHVSNVHKALDSDDIELVKLLLKEDHTNLDDACALHFAVAYCNVKTATDLLKLDLADVNHRNPRGYTVLHVAAMRKEPQLILSLLEKGASASEATLEGRTALMIAKQATMAVECNNIPEQCKHSLKGRLCVEILEQEDKREQIPRDVPPSFAVAADELKMTLLDLENRVALAQRLFPTEAQAAMEIAEMKGTCEFIVTSLEPDRLTGTKRTSPGVKIAPFRILEEHQSRLKALSKTVELGKRFFPRCSAVLDQIMNCEDLTQLACGEDDTAEKRLQKKQRYMEIQETLKKAFSEDNLELGNSSLTDSTSSTSKSTGGKRSNRKLSHRRR [C150Y] |
